Measurements taken from patent US20230105029A1 (CHIA TAI TIANQING PHARMACEUTICAL GROUP, published 2023).

T1: marmoset monkey IL4Rα-his protein (marmoset monkey)
T1 construct: Custom made by Sino biological; no cleavage site stated; also called cal-IL4Rα-his; Cal-IL4Rα
T1 chain: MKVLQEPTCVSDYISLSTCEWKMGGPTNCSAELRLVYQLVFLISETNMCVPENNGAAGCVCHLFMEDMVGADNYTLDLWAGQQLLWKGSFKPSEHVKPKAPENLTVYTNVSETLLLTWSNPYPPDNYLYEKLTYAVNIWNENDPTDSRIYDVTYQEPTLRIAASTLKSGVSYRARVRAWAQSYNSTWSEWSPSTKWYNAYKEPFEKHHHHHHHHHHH


Tests used:
[1] = target: T1, marmoset monkey IL4Rα-his protein; experiment: indirect ELISA, coated cal-IL4Rα-his
[2] = target: T2, recombinant human IL4Rα-his protein (in house made) (human, UniProt P24394 26-232, limits assumed); experiment: capture ELISA, biotin-IL4Rα-his
T2 construct: also called Human IL4Ra-his
Method: (§1) Plates were washed once with wash buffer (PBS+0.05% w/v Tween-20, PBST) and then blocked with 200 μl/well blocking buffer (5% w/v non-fatty milk in PBST) for 2 hours at 37° C. Plates were washed again and incubated with 100 μl/well serially diluted anti-IL4Rα antibodies of the disclosure, the benchmark or negative control hIgG (human immunoglobulin (pH4) for intravenous injection, Hualan Biological Engineering Inc.) (5-fold dilution in 2.5% w/v non-fatty milk in PBST, starting at 66.7 nM) for 40 minutes at 37° C., and then washed 4 times again. Plates containing captured anti-IL4Rα antibodies were incubated with biotin-labeled human IL4Rα-his protein (in house made with SEQ ID NO: 57, 0.14 nM in 2.5% w/v non-fatty milk in PBST, 100 μl/well) for 40 minutes at 37° C., washed 4 times, and incubated with streptavidin conjugated HRP (1:10000 dilution in PBST, Jackson Immuno Research, Cat #016-030-084, 100 μl/well) for 40 minutes at 37° C. After a final wash, plates were incubated with 100 μl/well ELISA substrate TMB (Innoreagents, Cat #TMB-S-002). The reaction was stopped in 10 minutes at 25° C. with 50 μl/well 1M H₂SO₄, and the absorbance was read at 450 nm. Data was analyzed using Graphpad Prism software and EC₅₀ values were reported.
(§2) For the capture ELISA, 96-well micro plates were coated with 2 μg/ml goat anti-human IgG (AffiniPure Goat Anti-Human IgG, Fcγ fragment specific, Jackson Immunoresearch, Cat #109-005-098) instead of goat anti-mouse IgG Fey fragment, 100 μl/well.

[3] = target: T3, human IL4Rα expressed on 293F-IL4Rα cells (human, UniProt P24394 26-825); experiment: flow cytometry, blocks biotin-IL4 binding to 293F-IL4Rα cells
T3 construct: whole, on cells; also called cell surface human IL4Rα
Method: Then, 1×10⁵ cells per well in 96 well-plates were incubated in 100 μL of the anti-IL4Rα antibodies or controls of various concentrations (starting at 80 nM with a 4-fold serial dilution) in FACS buffer for 40 minutes on ice. The plates were washed twice with FACS buffer, and added and incubated for 40 minutes at 4° C. in dark with 100 μl/well 1.67 nM biotin-labeled human IL4 protein (Sino biological inc., Cat #11846-HNAE). The plates were washed twice with FACS buffer, and then added and incubated for 40 minutes at 4° C. in dark with 100 μl/well R-Phycoerythrin Streptavidin (1:500 dilution in FACS buffer, Jackson Immunoresearch, Cat #016-110-084). Cells were washed twice and resuspended in FACS buffer. Fluorescence was measured using a Becton Dickinson FACS Canto II-HTS equipment. Data was analyzed using Graphpad Prism software and IC₅₀ values were reported.

[4] = target: T2, recombinant human IL4Rα-his protein (in …); experiment: capture ELISA: antibody captured on anti-IgG Fc plate, biotin human IL4Rα-his detected
Method: as §1, §2

[5] = target: T2, recombinant human IL4Rα-his protein (in …); experiment: capture ELISA, biotin-IL4Rα-his; remark: listed apart in the source
[6] = target: T2, recombinant human IL4Rα-his protein (in …); experiment: competitive ELISA, blocks biotin-IL4Rα-his binding to coated Benchmark (competitor)
Method: The ability of the anti-IL4Rα antibodies of the disclosure to block benchmark-human IL4Rα binding was measured in a competitive ELISA assay. Briefly, the benchmark was coated on 96-well micro plates at 2 μg/mL in PBS, 100 μl per well, and incubated overnight at 4° C. The next day, plates were washed with wash buffer (PBS+0.05% w/v Tween-20, PBST), and blocked with 5% w/v non-fatty milk in PBST for 2 hours at 37° C. tiring plate blocking, the anti-IL4Rα antibodies of the disclosure or controls were diluted with biotin labeled human IL4Rα-his proteins (prepared in-house with SEQ ID NO: 57, 0.55 nM in 2.5% w/v non-fatty milk in PBST), starting at 100 nM with a 4-fold serial dilution, and incubated at 25° C. for 40 minutes. After plate washing, the antibody/IL4Rα-his mixtures were added to benchmark coated plates, 100 μl per well. After incubation at 37° C. for 40 minutes, plates were washed using wash buffer. Then the plates were added and incubated with 100 μl/well streptavidin conjugated HRP for 40 minutes at 37° C. to detect biotin-labeled human IL4Rα-his bound to plates. Plates were washed again using wash buffer. Finally, TMB was added and the reaction was stopped using 1M H₂SO₄, and the absorbance was read at 450 nm. Data was analyzed using Graphpad Prism software and IC₅₀ values were reported.

Row | EC50 [1] [nM] | EC50 [2] [nM] | IC50 [3] [nM] | EC50 [4] [nM] | EC50 [5] [nM] | IC50 [6] [nM] | Binder
1 | 0.87 | 0.14 | 0.5 | 0.143 | 0.21 | 0.02 | mouse antibody B8G11F2B7G5E8 (antibody, V domains shown, Mouse hybridoma mAb; also called Mouse B8G11F2B7G5E8; mAb B8G11F2B7G5E8) VH: EVQLQQSGADLVRPGASVKLSCTASGFNIKDTYMHWVKQRPEQGLEWVGRIDPTNGYTIYASKFQGKATITADTSSNTAYMQLSSLTSGDTAVYHCVSRRPWFAYWGQGTLVTVSA VL: DILMTQTPLSLPVSLGAQASISCRSSQSIVHSNGNTYLEWYLQKPGQSPKLLIYKVTNRFSGVPDRFSGSGSGTDFTLKISRVEAEDLGIYYCFQGSHVPYTFGGGTKLEIK
2 | 1.01 | 0.27 | 0.36 | 0.275 | 0.32 | 1.52 | chimeric antibody B8G11F2B7G5E8 (antibody, human IgG4 S228P, kappa, V domains shown, Mouse variable domains on human IgG4/kappa; also called Chimeric B8G11F2B7G5E8; chB8G11F2B7G5E8) VH: EVQLQQSGADLVRPGASVKLSCTASGFNIKDTYMHWVKQRPEQGLEWVGRIDPTNGYTIYASKFQGKATITADTSSNTAYMQLSSLTSGDTAVYHCVSRRPWFAYWGQGTLVTVSA VL: DILMTQTPLSLPVSLGAQASISCRSSQSIVHSNGNTYLEWYLQKPGQSPKLLIYKVTNRFSGVPDRFSGSGSGTDFTLKISRVEAEDLGIYYCFQGSHVPYTFGGGTKLEIKR
3 | – | – | – | – | – | 0.02 | mouse antibody B1D2F7D3B5 (antibody, V domains shown, Mouse hybridoma mAb) VH: EVKLVESGGGLVKPGGSLKLSCAASGFTFSSYAMSWVRQTPEKRLEWVASISSGDSTYYLDSVKGRFTISRDNAMNILYLQMSSLRSEDTAVYYCERSGGSAPYWGQGTLVSVSA VL: QIVLTQSPAIMSASPGEMVTISCSASSSVSYMYWYQQKPGSSPKPWIYRTSNLASGVPARFSGSGSGTSYSLTISSMEAEDAATYYCQQYHSFPLTFGAGTKLELK
4 | – | – | – | – | – | 0.02 | mouse antibody B9D1D11F8D8 (antibody, V domains shown, Mouse hybridoma mAb) VH: EVKLVESGGGLVKPGGSLKLSCAASGFTFSSYAMSWVRQTPEKRLEWVASISSGDSTYYLDSVKGRFTISRDNARNILYLQVSSLRSEDTAMYYCERSGGSAPYWGQGTLVTVSA VL: QIVLTQSPAIMSASPGDMVTISCSASSSVNYMYWYQQKPGSSPKPWIYRTSNLASGVPARFSGSGSGTSYSLTISSMEAEDAATYYCQQYHSFPLTFGAGTKLELK
5 | – | 0.03 | – | 0.0262 | – | 0.04 | mouse antibody C2C1A1A1 (antibody, V domains shown, Mouse hybridoma mAb; also called Mouse C2C1A1A1) VH: EVQLVESGGGLVQPGGSLKLSCAASGFTFSTYGMSWVRQTPDKRLELVATINSNGGSTSYPDSVKGRFTISRDNAKNTLYLQMSSLKSEDTAMFYCARFFRFRNAMDYWGQGTSVTVSS VL: DIQMTQSPASLSASVGETVTITCRTSENIYSYLAWYQQKQGKSPQFLVYNAKTLAEGVPSRFSGSGSGTQFSLNINSLQSEDFGSYYCQHYYGPPTWTFGGGTKLEIK
6 | 0.62 | 0.05 | 0.48 | 0.0549 | 0.05 | 0.17 | chimeric antibody C2C1A1A1 (antibody, human IgG4 S228P, kappa, V domains shown, Mouse variable domains on human IgG4/kappa; also called Chimeric C2C1A1A1; chC2C1A1A1) VH: EVQLVESGGGLVQPGGSLKLSCAASGFTFSTYGMSWVRQTPDKRLELVATINSNGGSTSYPDSVKGRFTISRDNAKNTLYLQMSSLKSEDTAMFYCARFFRFRNAMDYWGQGTSVTVSS VL: DIQMTQSPASLSASVGETVTITCRTSENIYSYLAWYQQKQGKSPQFLVYNAKTLAEGVPSRFSGSGSGTQFSLNINSLQSEDFGSYYCQHYYGPPTWTFGGGTKLEIKR
7 | – | – | – | – | – | 0.72 | mouse antibody C2B2F7B7 (antibody, V domains shown, Mouse hybridoma mAb) VH: EVQLVESGGGLVQPGGSLKLSCAASGFTFSTYGMSWVRQTPDKRLELVATINSNGGSTNYPDSVKGRFTISRDNAKNTLYLQMSSLKSEDTAMYYCARFFRIRNAMDYWGQGTSVTVSS VL: DIQMTQSPASLSASVGETVTITCRASENIYSYLAWYQQKQGKSPQFLVYNAKTLAEGVPSRFSGSGSGTQFSLKINSLQPEDFGSYYCQHYYGTPTWTFGGGTKLEIK
